Test results: the supplement of paper PMC10567573

B1: CCDC6 (parent)
chain: TLFKKIQALQKEKETLAVNYEKEE
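Also: lentivirally expressed fusions sorted by FACS into six bins by GFP to DsRed ratio, PSI derived from sequencing read proportions per bin multiplied by bin number.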

Variants of: B1
Assay: protein stability index of a GFP-peptide fusion (GPS, HEK-293T) (PSI 1-6); higher = more stable
Conditions: c terminus: a fixed tail appended
TLFKKIQALQKEKETWAVNYEKEE gave a protein stability index of 1.86.
In the case of TLFKKIQALQKEKETYAVNYEKEE, the protein stability index is reported as 3.58.
Variant TLFKKIQALQKEKETLCVNYEKEE has a protein stability index of 3.39.
TLFKKIQALQKEKETLDVNYEKEE showed a protein stability index of 3.74.
In the case of TLFKKIQALQKEKETLEVNYEKEE, the protein stability index is reported as 3.56.
Work on TLFKKIQALQKEKETLFVNYEKEE yielded a protein stability index of 2.49.
TLFKKIQALQKEKETLGVNYEKEE gave a protein stability index of 3.1.
Variant TLFKKIQALQKEKETLHVNYEKEE has a protein stability index of 2.95.
With TLFKKIQALQKEKETLIVNYEKEE the protein stability index was 2.85.
Variant TLFKKIQALQKEKETLKVNYEKEE has a protein stability index of 3.41.
Variant TLFKKIQALQKEKETLLVNYEKEE has a protein stability index of 2.51.
TLFKKIQALQKEKETLMVNYEKEE showed a protein stability index of 2.75.
For TLFKKIQALQKEKETLNVNYEKEE, the protein stability index was 2.65.
TLFKKIQALQKEKETLPVNYEKEE gave a protein stability index of 2.84.
TLFKKIQALQKEKETLQVNYEKEE gave a protein stability index of 3.04.
For TLFKKIQALQKEKETLRVNYEKEE, the protein stability index was 2.76.
TLFKKIQALQKEKETLSVNYEKEE showed a protein stability index of 2.71.
With TLFKKIQALQKEKETLTVNYEKEE the protein stability index was 3.18.
Work on TLFKKIQALQKEKETLVVNYEKEE yielded a protein stability index of 2.89.
For TLFKKIQALQKEKETLWVNYEKEE, the protein stability index was 2.16.
Work on TLFKKIQALQKEKETLYVNYEKEE yielded a protein stability index of 2.46.
In the case of TLFKKIQALQKEKETLAANYEKEE, the protein stability index is reported as 2.95.
For TLFKKIQALQKEKETLACNYEKEE, the protein stability index was 2.95.
For TLFKKIQALQKEKETLADNYEKEE, the protein stability index was 3.43.
For TLFKKIQALQKEKETLAENYEKEE, the protein stability index was 3.2.
TLFKKIQALQKEKETLAFNYEKEE showed a protein stability index of 2.58.
TLFKKIQALQKEKETLAGNYEKEE gave a protein stability index of 3.15.
Variant TLFKKIQALQKEKETLAHNYEKEE has a protein stability index of 3.62.
Work on TLFKKIQALQKEKETLAINYEKEE yielded a protein stability index of 3.04.
With TLFKKIQALQKEKETLAKNYEKEE the protein stability index was 3.43.
With TLFKKIQALQKEKETLALNYEKEE the protein stability index was 3.79.
With TLFKKIQALQKEKETLAMNYEKEE the protein stability index was 2.81.
In the case of TLFKKIQALQKEKETLANNYEKEE, the protein stability index is reported as 3.63.
For TLFKKIQALQKEKETLAPNYEKEE, the protein stability index was 3.16.
With TLFKKIQALQKEKETLAQNYEKEE the protein stability index was 3.21.
Work on TLFKKIQALQKEKETLARNYEKEE yielded a protein stability index of 2.66.
Variant TLFKKIQALQKEKETLASNYEKEE has a protein stability index of 3.31.
TLFKKIQALQKEKETLATNYEKEE gave a protein stability index of 3.02.
Variant TLFKKIQALQKEKETLAWNYEKEE has a protein stability index of 2.03.
For TLFKKIQALQKEKETLAYNYEKEE, the protein stability index was 2.53.
For TLFKKIQALQKEKETLAVAYEKEE, the protein stability index was 3.11.
TLFKKIQALQKEKETLAVCYEKEE gave a protein stability index of 3.14.
For TLFKKIQALQKEKETLAVDYEKEE, the protein stability index was 3.15.
For TLFKKIQALQKEKETLAVEYEKEE, the protein stability index was 3.64.
TLFKKIQALQKEKETLAVFYEKEE showed a protein stability index of 2.18.
Variant TLFKKIQALQKEKETLAVGYEKEE has a protein stability index of 3.25.
TLFKKIQALQKEKETLAVHYEKEE gave a protein stability index of 3.08.
TLFKKIQALQKEKETLAVIYEKEE gave a protein stability index of 2.7.
For TLFKKIQALQKEKETLAVKYEKEE, the protein stability index was 2.69.
Work on TLFKKIQALQKEKETLAVLYEKEE yielded a protein stability index of 2.41.
TLFKKIQALQKEKETLAVMYEKEE showed a protein stability index of 2.65.
TLFKKIQALQKEKETLAVPYEKEE gave a protein stability index of 3.24.
TLFKKIQALQKEKETLAVQYEKEE showed a protein stability index of 3.08.
Work on TLFKKIQALQKEKETLAVRYEKEE yielded a protein stability index of 2.57.
In the case of TLFKKIQALQKEKETLAVSYEKEE, the protein stability index is reported as 2.99.
Work on TLFKKIQALQKEKETLAVTYEKEE yielded a protein stability index of 3.34.
In the case of TLFKKIQALQKEKETLAVVYEKEE, the protein stability index is reported as 2.58.
TLFKKIQALQKEKETLAVWYEKEE showed a protein stability index of 2.11.
Variant TLFKKIQALQKEKETLAVYYEKEE has a protein stability index of 2.33.
With TLFKKIQALQKEKETLAVNAEKEE the protein stability index was 3.54.
In the case of TLFKKIQALQKEKETLAVNCEKEE, the protein stability index is reported as 3.32.
For TLFKKIQALQKEKETLAVNDEKEE, the protein stability index was 4.09.
For TLFKKIQALQKEKETLAVNEEKEE, the protein stability index was 4.32.
Variant TLFKKIQALQKEKETLAVNFEKEE has a protein stability index of 3.06.
TLFKKIQALQKEKETLAVNGEKEE showed a protein stability index of 3.71.
Variant TLFKKIQALQKEKETLAVNHEKEE has a protein stability index of 3.62.
TLFKKIQALQKEKETLAVNIEKEE showed a protein stability index of 2.96.
TLFKKIQALQKEKETLAVNKEKEE gave a protein stability index of 3.68.
Variant TLFKKIQALQKEKETLAVNLEKEE has a protein stability index of 3.45.
For TLFKKIQALQKEKETLAVNMEKEE, the protein stability index was 2.45.
In the case of TLFKKIQALQKEKETLAVNNEKEE, the protein stability index is reported as 3.57.
Variant TLFKKIQALQKEKETLAVNPEKEE has a protein stability index of 3.21.
Variant TLFKKIQALQKEKETLAVNQEKEE has a protein stability index of 4.34.
With TLFKKIQALQKEKETLAVNREKEE the protein stability index was 3.53.
TLFKKIQALQKEKETLAVNSEKEE showed a protein stability index of 3.84.
For TLFKKIQALQKEKETLAVNTEKEE, the protein stability index was 3.62.
Variant TLFKKIQALQKEKETLAVNVEKEE has a protein stability index of 3.47.
For TLFKKIQALQKEKETLAVNWEKEE, the protein stability index was 3.26.
TLFKKIQALQKEKETLAVNYAKEE showed a protein stability index of 2.26.
For TLFKKIQALQKEKETLAVNYCKEE, the protein stability index was 2.53.
Variant TLFKKIQALQKEKETLAVNYDKEE has a protein stability index of 3.2.
With TLFKKIQALQKEKETLAVNYFKEE the protein stability index was 1.62.
For TLFKKIQALQKEKETLAVNYGKEE, the protein stability index was 3.01.
TLFKKIQALQKEKETLAVNYHKEE gave a protein stability index of 2.84.
TLFKKIQALQKEKETLAVNYIKEE gave a protein stability index of 1.97.
Variant TLFKKIQALQKEKETLAVNYKKEE has a protein stability index of 2.58.
TLFKKIQALQKEKETLAVNYLKEE gave a protein stability index of 2.28.
TLFKKIQALQKEKETLAVNYMKEE gave a protein stability index of 2.11.
TLFKKIQALQKEKETLAVNYNKEE gave a protein stability index of 2.92.
TLFKKIQALQKEKETLAVNYPKEE showed a protein stability index of 2.72.
In the case of TLFKKIQALQKEKETLAVNYQKEE, the protein stability index is reported as 3.1.
In the case of TLFKKIQALQKEKETLAVNYRKEE, the protein stability index is reported as 2.36.
Variant TLFKKIQALQKEKETLAVNYSKEE has a protein stability index of 3.06.
With TLFKKIQALQKEKETLAVNYTKEE the protein stability index was 2.84.
